Source: US20240092876A1 (priority 2020, published 2024)
Values joined by “and” are separate entries in the source; they are usually repeats but may differ in a detail not shown here. Equal values may be shown once. Read-outs that look alike come from different tables or passages of the source.

Legend:
[1] = test system: B/Brisbane/60/2008 (Victoria); design: species or system influenza B virus; settings: in vivo, po, 10 mg/kg
H1N1 A/Puerto Rico/8/34 = test system: H1N1 A/Puerto Rico/8/34; design: species or system influenza A virus; settings: in vivo, po, 10 mg/kg
H3N2 A/Hong Kong/8/68 = test system: H3N2 A/Hong Kong/8/68; design: species or system influenza A virus; settings: in vivo, po, 10 mg/kg
[2] = test system: B/Victoria/504/2000 (Yamagata); design: species or system influenza B virus; settings: in vivo, po, 10 mg/kg
[3] = biological target: N2 A/South Australia/34/2019 (245Gly+) (Influenza A virus A/South Australia/34/2019)
[4] = biological target: N2 A/South Australia/34/2019 (245Gly+) (Influenza A virus A/South Australia/34/2019); remark: listed apart in the source
[5] = biological target: N1 neuraminidase from A/Swine/Jiangsu/J004/2018 (Influenza A virus A/Swine/Jiangsu/J004/2018 (H1N1))
[6] = biological target: N1 neuraminidase from A/Swine/Jiangsu/J004/2018 (Influenza A virus A/Swine/Jiangsu/J004/2018 (H1N1)); remark: listed apart in the source
[7] = biological target: N7_A_Netherlands_078_03 (influenza A virus); assay: flow cytometry on NA-expressing cells
[8] = biological target: B/Lee/10/1940(Ancestral) (influenza B virus); assay: flow cytometry on NA-expressing cells
[9] = biological target: N2_NA_A_South_Australia_34_2019 (influenza A virus); assay: flow cytometry on NA-expressing cells
[10] = biological target: N2 neuraminidase from A/Washington/01/2007 (Influenza A virus A/Washington/01/2007); assay: flow cytometry on NA-expressing cells
[11] = biological target: N1 neuraminidase from A/Swine/Jiangsu/J004/2018 (Influenza A virus A/Swine/Jiangsu/J004/2018 (H1N1)); assay: flow cytometry on NA-expressing cells
[12] = biological target: N2_A_Leningrad_134_17_57 (influenza A virus); assay: flow cytometry on NA-expressing cells
[13] = biological target: B/Malaysia/2506/2004(Victoria) (influenza B virus); assay: flow cytometry on NA-expressing cells
[14] = biological target: N1 neuraminidase from A/California/07/2009 (Influenza A virus A/California/07/2009 (H1N1)); assay: flow cytometry on NA-expressing cells
[15] = biological target: N9 neuraminidase from A/Anhui/1/2013 (Influenza A virus A/Anhui/1/2013 (H7N9)); assay: flow cytometry on NA-expressing cells
[16] = biological target: B/Yamanashi/166/1998(Yamagata) (influenza B virus); assay: flow cytometry on NA-expressing cells
[17] = biological target: N3_A_Canada_rv504_2004 (influenza A virus); assay: flow cytometry on NA-expressing cells
[18] = biological target: N6_A_Swine_Ontario_01911_1_99 (influenza A virus); assay: flow cytometry on NA-expressing cells
[19] = biological target: N1_NA_A_swine_Hebei_0116_2017 (influenza A virus); assay: flow cytometry on NA-expressing cells
[20] = biological target: N8_A_harbor_seal_New_hampshire_179629_2011 (influenza A virus); assay: flow cytometry on NA-expressing cells
[21] = biological target: N1_A_Stockholm_18_2007 (influenza A virus); assay: flow cytometry on NA-expressing cells

1G01 (antibody)
Kd (N2): < 1 pM | koff (N2): < 1e-07 s⁻¹ | kon (N2): 40200 M⁻¹ s⁻¹

CCOC(=O)C1=C[C@@H](OC(CC)CC)[C@H](NC(C)=O)[C@@H](N)C1 [OSE, oseltamivir]
reduction in viral titres in comparison to the vehicle [1]: exception | reduction in viral titres in comparison to the vehicle (H1N1 A/Puerto Rico/8/34): 1 log | reduction in viral titres in comparison to the vehicle (H3N2 A/Hong Kong/8/68): 1 log | reduction in viral titres in comparison to the vehicle [2]: 1 log

FNI3 (antibody)
Alexa 647-A+ (percent of cells in the positive gate) [3]: 49.1% and 48.4% | Alexa 647-A+ (percent of cells in the positive gate) [4]: 59.2% and 54% | Alexa 647-A+ (percent of cells in the positive gate) [5]: 83.7% and 79.6% | Alexa 647-A+ (percent of cells in the positive gate) [6]: 83.9% and 85.2% | MFI normalized vs wt [7]: 1 | MFI normalized vs wt [8]: 1 | MFI normalized vs wt [9]: 1 | MFI normalized vs wt [10]: 1 | MFI normalized vs wt [11]: 1 | MFI normalized vs wt [12]: 1 | MFI normalized vs wt [13]: 1 | MFI normalized vs wt [14]: 1 | MFI normalized vs wt [15]: 1 | MFI normalized vs wt [16]: 1 | MFI normalized vs wt [17]: 1 | MFI normalized vs wt [18]: 1 | MFI normalized vs wt [19]: 1 | MFI normalized vs wt [20]: 1 | MFI normalized vs wt [21]: 1 | Kd (N2): < 1 pM | koff (N2): < 1e-07 s⁻¹ | kon (N2): 11500 M⁻¹ s⁻¹

FNI9 (antibody)
Alexa 647-A+ (percent of cells in the positive gate) [3]: 68.8% and 57% | Alexa 647-A+ (percent of cells in the positive gate) [4]: 66.1% and 71.3% | Alexa 647-A+ (percent of cells in the positive gate) [5]: 82.1% and 78% | Alexa 647-A+ (percent of cells in the positive gate) [6]: 84% and 83.5% | Kd (N2): < 1 pM
